Data: patent US20260250318A1, “COMPOSITIONS AND METHODS FOR CROSSING THE BLOOD BRAIN BARRIER” (VOYAGER THERAPEUTICS, INC., priority 2022, published 2026)

Experiments:
ALPL on HeLa cells = biological target: T1, ALPL on HeLa cells (Homo sapiens, UniProt P05186); assay: Transduction of HeLa cells after blocking with an anti-ALPL antibody; format: cell-based; details: for Transduction in Hela cells as measured by luciferase assay (RLU): 1E4 VG/cell
T1 construct: knockdown endogenous levels of ALPL in HeLa cells; endogenous in cells; host or cells: HeLa
T1 sequence (P05186 18-501): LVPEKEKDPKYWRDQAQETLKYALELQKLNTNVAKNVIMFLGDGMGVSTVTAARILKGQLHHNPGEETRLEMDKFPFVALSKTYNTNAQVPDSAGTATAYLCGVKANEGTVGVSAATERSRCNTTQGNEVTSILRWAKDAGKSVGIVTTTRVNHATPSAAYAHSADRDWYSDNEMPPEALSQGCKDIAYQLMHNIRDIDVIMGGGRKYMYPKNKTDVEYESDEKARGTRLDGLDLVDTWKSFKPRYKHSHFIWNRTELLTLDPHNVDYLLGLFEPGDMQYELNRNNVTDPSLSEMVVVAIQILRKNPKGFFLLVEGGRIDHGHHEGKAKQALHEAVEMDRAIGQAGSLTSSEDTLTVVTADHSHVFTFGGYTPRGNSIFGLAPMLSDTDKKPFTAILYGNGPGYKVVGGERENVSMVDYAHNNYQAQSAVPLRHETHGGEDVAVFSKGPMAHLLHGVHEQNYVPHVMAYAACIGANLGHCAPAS
Experimental: Following incubation, the cells were transduced with 1E4 VG/cell of AAV particles comprising the TTM-002 capsid variant or an AAV9 control expressing a GFP-luciferase payload. After a 4 hour incubation period the AAV and media were removed and replaced with fresh media and luciferase activity was measured (RLU) 24 hours post transduction.

brain [1] = assay: NGS fold enrichment of AAV capsid variant library, second passage in NHPs; format: in vivo, NHP; details: second passage (P2) in NHPs
Excerpt: A TRACER based method as described in WO2020072683, WO 2021/202651, and WO2021230987, the contents of which are herein incorporated by reference in their entirety, was used to generate the AAV capsid variants described herein. An orthogonal evolution approach was combined with a high throughput screening by NGS. Briefly, the library of AAV capsid variants was generated using a sliding window approach, where 6 amino acid sequences were inserted into 8 different positions across loop IV of AAV9, including immediately subsequent to positions 453, 454, 455, 456, 457, 458, 459, and 460, relative to a reference sequence numbered according to SEQ ID NO: 138. The initial library was passed twice through non-human primates (NHP, 2-4 years of age). After the second passage (e.g., 28 days post injection into two NHPs), RNA was extracted from six brain regions. […]
A second cross-species evolution screen was performed using an AAV capsid variant library with a modification in loop IV introduced as described above and passaging it once through NHPs (passage 1) and then subsequently injected it into two different strains of mice (passage 2), C57Bl/6 and BALB/c. The fold-enrichment for each variant in the brain of each mouse species was calculated by systematic NGS enrichment analysis following RNA recovery and RT-PCR amplification. […]

[2] = test system: brain, spinal cord, and DRG of the NHPs; assay: NGS fold enrichment of synthetic library (passage 3) in NHPs, first cross-species screen; format: in vivo, cynomolgus macaques (Macaca fascicularis); details: for fold enrichment in the DRG of NHPs relative to AAV9 / fold enrichment in the brain of NHPs relative to AAV9 / fold enrichment in the spinal cord of NHPs relative to AAV9: passage 3, intravenous; for Fold enrichment over AAV9 in the brain of NHPs / Fold enrichment over AAV9 in the spinal cord of NHPs: synthetic library passage 3, intravenous, RNA NGS, relative to wild-type AAV9
Summary of the method: (§1)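 Synthetic capsid library (passage 3) was given intravenously […] to NHPs aged 2-4 years and to BALB/c and C57Bl/6 mice (n=3 each, 6-8 weeks). After about 28 days in vivo, tissue RNA was RT-PCR amplified and NGS-sequenced; values are fold enrichment per variant relative to wild-type AAV9.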

brain [3] = assay: NGS fold enrichment of synthetic library (passage 3) in C57Bl/6 mice, first cross-species screen; format: in vivo; details: synthetic library passage 3, intravenous, RNA NGS, brain of C57Bl/6 mice, relative to wild-type AAV9
Summary of the method: as §1

[4] = IgG isotype control 3.125 μg/mL

| Molecule | Transduction in Hela cells as measured by luciferase assay (RLU) (ALPL on HeLa cells; Anti-ALPL antibody 0 μg/mL) | Transduction in Hela cells as measured by luciferase assay (RLU) (ALPL on HeLa cells; Anti-ALPL antibody 3.125 μg/mL) | Transduction in Hela cells as measured by luciferase assay (RLU) (ALPL on HeLa cells; Anti-ALPL antibody 6.25 μg/mL) | Transduction in Hela cells as measured by luciferase assay (RLU) (ALPL on HeLa cells; Anti-ALPL antibody 12.5 μg/mL) | Transduction in Hela cells as measured by luciferase assay (RLU) (ALPL on HeLa cells; IgG isotype control 0 μg/mL) | Transduction in Hela cells as measured by luciferase assay (RLU) (ALPL on HeLa cells; [4]) | Transduction in Hela cells as measured by luciferase assay (RLU) (ALPL on HeLa cells; IgG isotype control 6.25 μg/mL) | Transduction in Hela cells as measured by luciferase assay (RLU) (ALPL on HeLa cells; IgG isotype control 12.5 μg/mL) | Fold enrichment over AAV9 in NHPP2 (brain [1]) | fold enrichment in the DRG of NHPs relative to AAV9 [2] | fold enrichment in the brain of NHPs relative to AAV9 [2] | fold enrichment in the brain of NHPs relative to AAV9 ([2]; listed as GSGSPHSKAQNQQT) | fold enrichment in the spinal cord of NHPs relative to AAV9 [2] | Fold enrichment over AAV9 in the brain of NHPs [2] | Fold enrichment over AAV9 in the spinal cord of NHPs [2] | Fold enrichment over AAV9 in the brain of Mice (C57Bl/6) (brain [3]) | transduction in the presence of anti-ALPL antibody vs isotype control (ALPL on HeLa cells; HeLa, 0-12.5 μg/mL antibody) |
| --- | --- | --- | --- | --- | --- | --- | --- | --- | --- | --- | --- | --- | --- | --- | --- | --- | --- |
| AAV9: wild-type AAV9 control capsid [reference compound] | 530.67 RLU | 527.33 RLU | 451.67 RLU | 417.33 RLU | 433.33 RLU | 457.67 RLU | 516.33 RLU | 551.33 RLU | – | – | – | – | – | – | – | – | – |
| TTM-001: AAV9 capsid variant comprising SPHSKA (SEQ ID NO: 941) in loop IV (protein) chain 1: MAADGYLPDWLEDNLSEGIREWWALKPGAPQPKANQQHQDNARGLVLPGYKYLGPGNGLDKGEPVNAADAAALEHDKAYDQQLKAGDNPYLKYNHADAEFQERLKEDTSFGGNLGRAVFQAKKRLLEPLGLVEEAAKTAPGKKRPVEQSPQEPDSSAGIGKSGAQPAKKRLNFGQTGDTESVPDPQPIGEPPAAPSGVGSLTMASGGGAPVADNNEGADGVGSSSGNWHCDSQWLGDRVITTSTRTWALPTYNNHLYKQISNSTSGGSSNDNAYFGYSTPWGYFDFNRFHCHFSPRDWQRLINNNWGFRPKRLNFKLFNIQVKEVTDNNGVKTIANNLTSTVQVFTDSDYQLPYVLGSAHEGCLPPFPADVFMIPQYGYLTLNDGSQAVGRSSFYCLEYFPSQMLRTGNNFQFSYEFENVPFHSSYAHSQSLDRLMNPLIDQYLYYLSKTINGSGSPHSKAQNQQTLKFSVAGPSNMAVQGRNYIPGPSYRQQRVSTTVTQNNNSEFAWPGASSWALNGRNSLMNPGPAMASHKEGEDRFFPLSGSLIFGKQGTGRDNVDADKVMITNEEEIKTTNPVATESYGQVATNHQSAQAQAQTGWVQNQGILPGMVWQDRDVYLQGPIWAKIPHTDGNFHPSPLMGGFGMKHPPPQILIKNTPVPADPPTAFNKDKLNSFITQYSTGQVSVEIEWELQKENSKRWNPEIQYTSNYYKSNNVEFAVNTEGVYSEPRPIGTRYLTRNL chain 2: GSGSPHSKAQNQQT | – | – | – | – | – | – | – | – | 56.33 fold | 0.4 fold | 73.6 fold | 76.6 fold | 29.4 fold | 73.615 fold | 29.402 fold | 25.293 fold | – |
| TTM-002: AAV9 capsid variant comprising HDSPHK (SEQ ID NO: 2) in loop IV (protein) chain 1: MAADGYLPDWLEDNLSEGIREWWALKPGAPQPKANQQHQDNARGLVLPGYKYLGPGNGLDKGEPVNAADAAALEHDKAYDQQLKAGDNPYLKYNHADAEFQERLKEDTSFGGNLGRAVFQAKKRLLEPLGLVEEAAKTAPGKKRPVEQSPQEPDSSAGIGKSGAQPAKKRLNFGQTGDTESVPDPQPIGEPPAAPSGVGSLTMASGGGAPVADNNEGADGVGSSSGNWHCDSQWLGDRVITTSTRTWALPTYNNHLYKQISNSTSGGSSNDNAYFGYSTPWGYFDFNRFHCHFSPRDWQRLINNNWGFRPKRLNFKLFNIQVKEVTDNNGVKTIANNLTSTVQVFTDSDYQLPYVLGSAHEGCLPPFPADVFMIPQYGYLTLNDGSQAVGRSSFYCLEYFPSQMLRTGNNFQFSYEFENVPFHSSYAHSQSLDRLMNPLIDQYLYYLSKTINGHDSPHKSGQNQQTLKFSVAGPSNMAVQGRNYIPGPSYRQQRVSTTVTQNNNSEFAWPGASSWALNGRNSLMNPGPAMASHKEGEDRFFPLSGSLIFGKQGTGRDNVDADKVMITNEEEIKTTNPVATESYGQVATNHQSAQAQAQTGWVQNQGILPGMVWQDRDVYLQGPIWAKIPHTDGNFHPSPLMGGFGMKHPPPQILIKNTPVPADPPTAFNKDKLNSFITQYSTGQVSVEIEWELQKENSKRWNPEIQYTSNYYKSNNVEFAVNTEGVYSEPRPIGTRYLTRNL chain 2: GHDSPHKSGQNQQT | 4701 RLU | 5042.67 RLU | 5220 RLU | 5556.67 RLU | 4113.33 RLU | 527.33 RLU | 186.67 RLU | 136 RLU | 33.96 fold | 0.0 fold | 62.6 fold | – | 15.6 fold | 62.612 fold | 15.641 fold | 63.993 fold | decreased TTM-002 transduction in a dose dependent manner |
